Tested on: Tg2576 mice
Test: Chronic s.c. leptin infusion in Tg2576 mice under high or low fat diet
Format: in vivo, mouse
Protocol: Blood was withdrawn (approximately 1 ml) from deeply anaesthetized animals by cardiocentesis and mixed with 25 μl of 164 μM EDTA anticoagulant. Plasma was prepared immediately and frozen at −70° C. Plasma leptin concentrations were determined by a radioimmunoassay (RIA) (Chung et al., Am. J Physiol. 274:R985-R990 (1998)), using a kit from LINCO Research, Inc. (Missouri).
APPswe (SEQ ID NO: 13) expressing mice (Tg2576) or wild-type littermates were maintained in pathogen-free environment at 25° C. on a 12-12 h light-dark cycle. Mice were euthanized between the ages of 31 and 40 weeks. They were provided ad libidum access for up to 9 weeks (i.e., 1 week prior to leptin treatments and 8 weeks during such treatments) to a high fat diet (D12451) containing about 45% of the total calories from fat (Research Diets, NJ) or to a low fat diet (D12450B) containing about 10% of the total calories from fat. Equal number of male and female Tg2576 mice under each diet were administered leptin or a placebo (PBS) from the age of 32 wks to up to 40 wks of age. For this, mice were anaesthetized with intraperitoneal injection of ketamine (55 mg/ml) and xylazine (7-10 mg/ml) and surgically fitted with an Alzet miniosmotic pump (model 2004, Durect Co, CA) placed subcutaneously. Local subcutaneous injection of 0.5 ml of 0.5% lidocaine insured postoperative relief. Half of the mice received daily about 20 μg leptin in PBS (0.25 μl/h of 3.33 mg/ml recombinant murine leptin) and the other half were infused with PBS. Four from each group (two males and two females) were euthanized after 4 weeks treatment. Osmotic pumps were replaced in the rest and the mice then treated for a total period of 8 weeks. Wild-type littermates were also treated with leptin under high or low diet regimens. […]
In panel (a), plasma leptin was quantified in one year old mice with the following genotypes: i) double mutant APPSwe/PS1M146V ii) single mutant PS1M146V and iii) wild-type (a cross between C57BL/6Ntac and B6SJLF2). […] Plasma Aβ was also measured in these mice prior to treatment. […] In panel (c), plasma leptin was determined by radioimmunoassay (“RIA”) (LINCO Research, Inc.) in 8 month old Tg2576 and WT littermate mice and then again following treatments as described in FIG. 4b. Leptin also was measured in WT but not Tg2576 mice prior to treatment. In panel (d), plasma insulin was determined by RIA (LINCO Research, Inc.) in 8 month old WT and Tg2576 mice and then again following a 2 month LFD or HFD with (+) or without (−) leptin infusion. In panel (e), plasma total Aβ (Aβ40 (SEQ ID NO: 4) plus Aβ42/43 (SEQ ID NO: 5/SEQ ID NO: 6) was measured in 8 month Tg2576 mice and then again following a 2 month LFD or HFD with (+) or without (−) leptin infusion. […]

B1: Leptin: peptide hormone controlling adaptive metabolic mechanisms to energy availability; leptin (Harbor-UCLA) in vitro, recombinant murine leptin in mice (protein, UniProt P41160 22-167, looked up)
Leptin: VPIQKVQDDTKTLIKTIVTRINDISHTQSVSAKQRVTGLDFIPGLHPILSLSKMDQTLAVYQQVLTSLPSQNVLQIANDLENLRDLLHLLAFSKSCSLPQTSGLQKPESLDGVLEASLYSTEVVALSRLQGSLQDILQQLDVSPEC
levels of circulating Aβ (total Aβ in the plasma) (Tg2576, both diets, 2 month leptin infusion): lower the levels of circulating Aβ under both diets
APP expression in adipocytes (adipose tissue of mice under high or low fat diets, data not shown): no apparent influence
fasting insulin levels (plasma, RIA) (all groups (WT and Tg2576, LFD and HFD), 2 month leptin infusion): decreased fasting insulin levels in all groups
brain Aβ load (chronic administration, s.c. Alzet pump about 20 μg leptin daily, up to 8 weeks): reduced the brain Aβ load

Reference: patent publication US8227408B2, “Leptin as an anti-amyloidogenic biologic and methods for delaying the onset and reducing Alzheimer's disease-like pathology” (Neurotez, Inc., priority 2005, dated 2012)
